Values of other authors, collected in paper PMC5386376.

Target: Egl1 (Caenorhabditis elegans) (UniProt O61667)
Sequence (O61667 whole entry): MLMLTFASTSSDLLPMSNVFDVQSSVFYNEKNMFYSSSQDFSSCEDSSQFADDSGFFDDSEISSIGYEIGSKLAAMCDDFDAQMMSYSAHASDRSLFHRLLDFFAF

Bcl-2, sequence (P10415 whole entry): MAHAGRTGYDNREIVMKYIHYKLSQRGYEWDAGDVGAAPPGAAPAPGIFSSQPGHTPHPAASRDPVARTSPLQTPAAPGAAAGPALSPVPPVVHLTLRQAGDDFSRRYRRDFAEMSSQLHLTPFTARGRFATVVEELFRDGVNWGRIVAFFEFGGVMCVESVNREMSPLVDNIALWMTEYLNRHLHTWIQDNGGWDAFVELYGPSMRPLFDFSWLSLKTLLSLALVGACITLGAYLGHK

- Kd: 7.1 µM
Substance: Bcl-2 (from UniProt P10415)
